Patent publication US20240010750A1 (Bayer, published 2024)

Molecular target: T1, A2AP peptides with the consensus motif SRMSLSS (human)
T1 construct: Consensus motif shared by the reacting peptides of the PEPperCHIP arrays (linear 15-mers; cyclic 7-, 10- and 13-mers closed by a thioether)
T1 peptide: SRMSLSS
Experiment: PEPperCHIP peptide microarray, antibody at 1 µg/ml
Protocol: Antibodies were incubated on the Microarray in concentrations of 1 μg/ml, 10 μg/ml and 100 μg/ml in incubation buffer. Incubation time was 16 h at 4° C. and shaking at 140 rpm.
As secondary antibody the goat anti-human IgG (Fc) DyLight680 was used at a dilution of 1:5000. This detection antibody was incubated on the Microarray at 45 min staining in incubation buffer at room temperature.
Microarray image analysis was done with PepSlide® Analyzer. A software algorithm was used to break down fluorescence intensities of each spot into raw, foreground and background signal, and calculated averaged median foreground intensities and spot-to-spot deviations of spot duplicates. Based on averaged median foreground intensities, an intensity map was generated and interactions in the peptide map highlighted by an intensity color code with red for high and white for low spot intensities. Averaged spot intensities of the assays were plotted with the antibody samples against the antigen sequence from the N- to the C-terminus to visualize overall spot intensities and signal-to-noise ratios. The intensity plots were correlated with peptide and intensity maps as well as with visual inspection of the microarray scans to identify the epitopes of the tested antibodies.

B1: TPP-12387 hIgG1 (antibody, V domains shown)
VH: EVQLLESGGGLVQPGGSLRLSCAASGFTFDDYAMSWVRQAPGKGLEWVSAIGTGGGTYYADSVKGRFTISRDNSKNTLYLQMNSLRAEDTAVYYCAREYYDSSGYYHLDYWGQGTLVTVSS
VL: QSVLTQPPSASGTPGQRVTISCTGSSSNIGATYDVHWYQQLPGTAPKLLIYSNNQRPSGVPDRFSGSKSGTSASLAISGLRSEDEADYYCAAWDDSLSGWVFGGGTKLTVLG
notes: Fully human IgG1 lambda from the BioInvent n-CoDeR Fab lambda library; parental lead antibody
- signal-to-noise-ratio at 1 µg/ml: 659
